Measured values from publication PMC2193908 (The Journal of Experimental Medicine, 2003).
Like-named read-outs stand apart in the source and are kept apart here.

T1: CXCR3-A (classic CXC chemokine receptor 3) (human, UniProt P49682-1 1-368)
T1 sequence (looked up): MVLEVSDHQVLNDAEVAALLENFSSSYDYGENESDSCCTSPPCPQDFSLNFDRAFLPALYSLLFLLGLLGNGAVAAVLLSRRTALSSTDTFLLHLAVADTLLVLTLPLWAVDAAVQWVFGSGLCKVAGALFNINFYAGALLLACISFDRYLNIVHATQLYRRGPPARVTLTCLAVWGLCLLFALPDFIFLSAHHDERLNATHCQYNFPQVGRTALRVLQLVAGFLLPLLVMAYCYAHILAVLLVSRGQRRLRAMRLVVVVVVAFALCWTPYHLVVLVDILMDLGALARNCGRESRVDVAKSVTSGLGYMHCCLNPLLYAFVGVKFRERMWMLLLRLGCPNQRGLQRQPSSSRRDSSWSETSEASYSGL

T2: CXCR3-B (alternatively spliced variant of CXCR3) (human, UniProt P49682-2 1-415)
T2 sequence (looked up): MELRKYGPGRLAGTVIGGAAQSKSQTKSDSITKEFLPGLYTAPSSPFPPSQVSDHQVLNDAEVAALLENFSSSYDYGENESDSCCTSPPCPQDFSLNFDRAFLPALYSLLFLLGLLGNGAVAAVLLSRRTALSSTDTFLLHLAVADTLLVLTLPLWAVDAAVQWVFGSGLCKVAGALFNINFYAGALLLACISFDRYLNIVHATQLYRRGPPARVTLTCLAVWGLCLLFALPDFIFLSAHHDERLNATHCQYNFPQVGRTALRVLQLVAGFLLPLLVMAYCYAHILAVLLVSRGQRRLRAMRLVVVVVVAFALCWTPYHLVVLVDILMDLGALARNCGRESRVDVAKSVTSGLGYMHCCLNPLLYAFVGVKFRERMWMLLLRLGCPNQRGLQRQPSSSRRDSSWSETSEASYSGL

T3: CXCR3-B on the renal carcinoma ACHN cell line (human (endogenous in ACHN), UniProt P49682-2 1-415)
T3 sequence (looked up): T2 sequence (looked up)

B1: CXCL11/I-TAC (ligand, human, UniProt O14625 22-94, looked up)
chain: FPMFKRGRCLCIGPGVKAVKVADIEKASIMYPSNNCDKIEVIITLKENKGQRCLNPKSKQARLIIKKVERKNF
B2: CXCL9/Mig (ligand, human, UniProt Q07325 23-125, looked up)
chain: TPVVRKGRCSCISTNQGTIHLQSLKDLKQFAPSPSCEKIEIIATLKNGVQTCLNPDSADVKELIKKWEKQVSQKKKQKNGKKHQKKKVLKVRKSQRSRQKKTT

Experiments:
Assay in all cases: radioligand binding
[1] = target: CXCR3-B (alternatively spliced variant of CXCR3) (human) (UniProt P49682)
[2] = target: CXCR3-A (classic CXC chemokine receptor 3) (human) (UniProt P49682)
[3] = target: CXCR3-B (alternatively spliced variant of CXCR3) (human) (UniProt P49682); remark: listed apart in the source
[4] = target: CXCR3-B on the renal carcinoma ACHN cell line (human (endogenous in ACHN)) (UniProt P49682)
[5] = target: T1, CXCR3-A (classic CXC chemokine receptor …)
[6] = target: T2, CXCR3-B (alternatively spliced variant …)
[7] = target: T3, CXCR3-B on the renal carcinoma ACHN …

IC50 [1] | IC50 [2] | IC50 [3] | IC50 [4] | IC50 [5] | IC50 [6] | IC50 [7] | Molecule
0.00185 µM | 0.448 µM | 0.00746 µM | 0.00683 µM |  |  |  | CXCL4/PF4 (platelet factor 4) (ligand)
 |  |  |  | 0.00041 ± 0.00014 µM | 0.032 ± 0.0102 µM | 0.0496 ± 0.0113 µM | B1
 |  |  |  | 0.033 ± 0.024 µM | 0.133 ± 0.0465 µM | 0.0885 ± 0.0693 µM | B2
